Patent US20190135868

Key:
[1] = system: T1, RTD84 (stapled sDBD) (synthetic); assay: EMSA; conditions: text p911 gives EC50 ~50-100 nM
T1 sequence 1: KRXHHNXLERKRRDHIKDS
T1 sequence 2: KRRTHNXLERXRRNELKRS

RTD913 SMCC (synthetic) = system: T2, RTD913 SMCC (synthetic); assay: EMSA; conditions: stable complex formation, somewhat unstable binding; text p911 gives ~50-100 nM
T2 sequence 1: KRAHHNALERXRRDXIKDS
T2 sequence 2: KRRTHNXLERXRRNELKRS

Sequence “CACGTG (double strand) [E-box probe (E1)]” has a Kd [1] of 50 nM and an EC50 (RTD913 SMCC (synthetic)) of 20 nM.
